Laboratory results taken from patent US7250505.
Values belong to the substance of their own block, whether it stands above or below them.

Key:
[1] = target: GST-mDab1 PTB domain fusion protein (mouse); assay: fluorescence polarization competition against the fluorescein-labeled APP peptide, 1.1 µM PTB domain
[2] = target: fluorescein-labeled APP peptide (Mus musculus (Mouse)) (UniProt P12023); assay: fluorescence polarization, about 1 nM fluorescein-labeled APP peptide titrated with GST-PTB
[3] = target: APP synthetic peptide containing the NPXY region (non-phosphorylated) (Mus musculus (Mouse)) (UniProt P12023); assay: fluorescence polarization
[4] = target: APP peptide with isoleucine in place of Pro-2; assay: substitution scan on a cellulose peptide array, radiolabeled GST-PTB
[5] = target: APP peptide with lysine in place of Pro-2; assay: as above
[6] = target: APP peptide with arginine in place of Pro-2; assay: as above
[7] = target: activated Src (Src527F) (UniProt P00523); assay: co-immunoprecipitation with anti-Src from Rat-1 fibroblasts overexpressing both, immunoblot
[8] = target: GST-mDab1 PTB domain fusion protein (mouse); assay: fluorescence polarization competition

- competitor concentration of equal effect [1]: 2 µM
Substance: APP synthetic peptide containing the NPXY region (non-phosphorylated) (from UniProt P12023 754-770)

- Kd [2]: 0.55 µM
- Kd [3]: 0.5 µM
- percent binding against the wild-type APP peptide [4]: 40%
- percent binding against the wild-type APP peptide [5]: 40%
- percent binding against the wild-type APP peptide [6]: 40%
Substance: GST-mDab1 PTB domain fusion protein (from UniProt O75553 29-197)

- percent of the phosphorylated mDab1 of the total cell lysate immunoprecipitated with Src [7]: 1%
Substance: mDab1 p80 (mDab555 product), tyrosine phosphorylated (from UniProt P97318 1-588)

- fold reduction of affinity against the non-phosphorylated APP peptide [8]: 250 fold
- competitor concentration of equal effect [1]: 500 µM
Substance: phosphorylated APP peptide (from UniProt P12023 754-770)
